In patent US10294487B2, “Methods and compositions involving ALS variants with native substrate preference” (E I DU PONT DE NEMOURS AND COMPANY, priority 2012, dated 2019):
Positions count from the first letter of the chain named.

B1: GM-ALS1: Glycine Max ALS1 protein, wild type (protein)
chain: MAATASRTTRFSSSSSHPTFPKRITRSTLPLSHQTLTKPNHALKIKCSISKPPTAAPFTKEAPTTEPFVSRFASGEPRKGADILVEALERQGVTTVFAYPGGASMEIHQALTRSAAIRNVLPRHEQGGVFAAEGYARSSGLPGVCIATSGPGATNLVSGLADALMDSVPVVAITGQVPRRMIGTDAFQETPIVEVSRSITKHNYLILDVDDIPRVVAEAFFVATSGRPGPVLIDIPKDVQQQLAVPNWDEPVNLPGYLARLPRPPAEAQLEHIVRLIMEAQKPVLYVGGGSLNSSAELRRFVELTGIPVASTLMGLGTFPIGDEYSLQMLGMHGTVYANYAVDNSDLLLAFGVRFDDRVTGKLEAFASRAKIVHIDIDSAEIGKNKQAHVSVCADLKLALKGINMILEEKGVEGKFDLGGWREEINVQKHKFPLGYKTFQDAISPQHAIEVLDELTNGDAIVSTGVGQHQMWAAQFYKYKRPRQWLTSGGLGAMGFGLPAAIGAAVANPGAVVVDIDGDGSFIMNVQELATIRVENLPVKILLLNNQHLGMVVQWEDRFYKSNRAHTYLGDPSSESEIFPNMLKFADACGIPAARVTKKEELRAAIQRMLDTPGPYLLDVIVPHQEHVLPMIPSNGSFKDVITEGDGRTRY
modifications: GLYCINE MAX
notes: Glycine Max ALS1 protein, wild type
B2: SAMS: GM-ALS_P178A_W555L: SAMS promoter driving HRA ALS variant SEQ ID NO 10 in transgenic soybean (protein)
chain: B1 chain with P178A, W555L
B3: UBQ10: GM-ALS_P178S_D357E: UBQ10 promoter driving ALS variant SEQ ID NO 17 in transgenic soybean (protein)
chain: B1 chain with P178S, D357E
B4: UBQ10: GM-ALS_A103T_P178S: UBQ10 promoter driving ALS variant SEQ ID NO 7 in transgenic soybean (protein)
chain: B1 chain with A103T, P178S

Key:
G. max ALS1 protein [1] = assay: Colorimetric ALS kinetic assay (Km, kcat) with pyruvate as substrate; format: biochemical, Glycine max
In short: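 Recombinant soybean ALS variants, mature N-terminus from S48, His-MBP tag cleaved off; 0.8 ug enzyme per well in 25 mM potassium phosphate, 15 mM MgCl2, 0.7 mM TPP, 28 uM FAD, 0.2 mg/ml BSA, 0-100 mM pyruvate. Km and Vmax from hyperbolic fit; kcat from Vmax and protein concentration.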

[2] = test system: soybean embryogenic suspension tissue; assay: Chlorsulfuron selectable marker activity in soybean transformation; format: cell-based; details: chlorsulfuron selection 50 then 100 ppb; SAMS (low) or UBQ10 (high) expression promoter as in label
Source text: Soybean plants expressing ALS variant transgenes were produced using the method of particle gun bombardment (Klein et al. (1987) Nature 327:70-73, U.S. Pat. No. 4,945,050) using a DuPont BIOLISTIC® PDS1000/He instrument. The vectors used to test modified ALS genes as selectable markers in soybean transformation were composed of the S-adenosylmethionine synthase (SAMS) promoter (U.S. Pat. No. 7,741,537) from soybean, or the polyubiquitin 10 (AT-UBQ10) promoter (DuPont) from Arabidopsis, driving the modified ALS coding sequence followed by the native soybean ALS terminator region. The selection agent used during the transformation process was chlorsulfuron. Bombardments were carried out with linear DNA fragments purified away from any bacterial vector DNA. Bombarded soybean embryogenic suspension tissue was cultured for one week in the absence of chlorsulfuron, and then placed in liquid selection medium for 6 weeks. Selection in liquid cultures was at 50 parts per billion (ppb) chlorsulfuron for three weeks, then elevated to 100 ppb. Putative transgenic suspension tissue was sampled for PCR analysis to confirm the presence of the modified ALS gene. Putative transgenic suspension culture tissue was maintained in selection medium for 3 weeks to obtain enough tissue for plant regeneration. […]

G. max ALS1 protein [3] = assay: Substrate specificity ratio (Rf), pyruvate versus 2-ketobutyrate, LC-MS of reduced products; format: biochemical, Glycine max; details: ratio of [pyruvate] to [2-ketobutyrate] giving equal rates of acetolactate and acetohydroxybutyrate formation, 25 mM pyruvate
In short: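 Pyruvate was held at 25 mM while 2-ketobutyrate was varied. Reactions were quenched with sodium borohydride, and the reduced acetolactate and acetohydroxybutyrate were separated on C18 with a methanol gradient and quantified by MS integration. Rf is the [pyruvate]/[2-ketobutyrate] ratio that gives equal formation rates of both products.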

soybean plants [4] = assay: Spray test of homozygous transgenic soybean plants with five ALS-inhibitor herbicides; format: in vivo; details: homozygous T1 or T2 plants; for Lowest % injury Tribenuron-methyl: tribenuron-methyl 16 g ai/ha foliar; for Lowest % injury Chlorimuron: chlorimuron 32 g ai/ha foliar; for Lowest % injury Imazapyr: imazapyr 4 g ai/ha foliar; for Lowest % injury Rimsulfuron: rimsulfuron 8 g ai/ha foliar; for Lowest % injury Thifensulfuron-methyl: thifensulfuron-methyl 16 g ai/ha foliar
Method: T1 or T2 soybean plants were evaluated with qPCR to confirm they were homozygous for the transgene. Plants were sprayed at the V1 to V2 growth stage with the commercial formulations of chlorimuron (32 g ai/ha), tribenuron-methyl (16 g ai/ha), thifensulfuron-methyl (16 g ai/ha), rimsulfuron (8 g ai/ha), and imazapyr (4 g ai/ha). Each herbicide was applied foliarly with nonionic surfactant in a spray volume of 374 L/ha. The herbicide response for individual plants was determined by comparing to untreated plants of similar genetic background. Visual injury was scored on a scale of 0 to 100% injury (0=no effect to 100=dead plant). The lowest response for four treated plants of a single event from each construct with the listed expression cassette is reported.

soybean plants [5] = assay: Field spray test of homozygous T3 soybean plants with Affinity Broadspec; format: in vivo; details: Affinity Broadspec (thifensulfuron + tribenuron) 1 oz product per acre
Method: Homozygous T3 soybean plants with and without ALS variant transgenes were grown in a field study and sprayed at the V2 to V4 growth stage with a commercial formulation of Affinity Broadspec at 1 oz product per acre (2× typical field rate). Affinity Broadspec contains 25% thifensulfuron and 25% tribenuron by volume. The herbicide was applied foliarly with nonionic surfactant. The herbicide response for individual events was determined by comparing to untreated plants of similar genetic background. Visual injury is on a scale of 0 to 100% injury (0=no effect to 100=dead plant). The substituted ALS variants gave substantially more protection to ALS-inhibitors than overexpression of the native ALS gene.

soybean plants [6] = assay: Chlorsulfuron spray test of transgenic T1 soybean plants; format: in vivo; details: chlorsulfuron 3 g ai/ha foliar; homozygous T1 plants; 8 days after treatment; 0=no effect, 100=dead plant
Method: T1 plants, each having an ALS variant transgene, were grown to the V1 to V2 growth stage and then sprayed with commercial chlorsulfuron formulation at a rate of 3 g ai/ha. All chlorsulfuron treatments were applied foliarly with 0.25% nonionic surfactant in a spray volume of 374 L/ha. Individual plants were compared to untreated plants of similar genetic background, evaluated for herbicide response at eight days after treatment and assigned a visual response score from 0 to 100% injury (0=no effect to 100=dead plant at day 8).
Results in Table 8 list the lowest injury among plants of a single event for constructs containing the listed expression cassette. The amino acid substituted ALS variants provided more protection than the overexpression of the native ALS gene. Seed was produced from a number of T1 plants and advanced to more extensive herbicide testing in the T2 generation.

| Molecule | Km (G. max ALS1 protein [1]) [µM] | kcat (G. max ALS1 protein [1]) [s⁻¹] | Selectable Marker Activity [2] | Substrate specificity ratio (Rf) (G. max ALS1 protein [3]) | Substrate specificity ratio (Rf) (G. max ALS1 protein [3]; listed as Glycine max ALS1) | Substrate specificity ratio (Rf) (G. max ALS1 protein [3]; listed as wild type enzyme) | Lowest % injury Tribenuron-methyl (soybean plants [4]) [%] | Lowest % injury (soybean plants [5]) [%] | Lowest % injury (soybean plants [6]) [%] | Lowest % injury Chlorimuron (soybean plants [4]) [%] | Lowest % injury Imazapyr (soybean plants [4]) [%] | Lowest % injury Rimsulfuron (soybean plants [4]) [%] | Lowest % injury Thifensulfuron-methyl (soybean plants [4]) [%] |
| --- | --- | --- | --- | --- | --- | --- | --- | --- | --- | --- | --- | --- | --- |
| B1 | 3000 | 0.933 | not able to act as a selection marker | 114.0 | ~114 | ~114 | – | – | – | – | – | – | – |
| B2 | – | – | – | – | – | – | 75 | 5 | 10 | – | – | – | – |
| B3 | – | – | – | – | – | – | 20 | 13 | 5 | 20 | 40 | 70 | 20 |
| B4 | – | – | – | – | – | – | 65 | 57 | 40 | 35 | 45 | 80 | 35 |
